Reference: patent publication US20240092867A1 (UNIVERSITY OF CHICAGO, published 2024)

B3: placental growth factor (PlGF)-1 (ligand, human, UniProt P49763-2 19-149, looked up)
chain: LPAVPPQQWALSAGNGSSEVEVVPFQEVWGRSYCRALERLVDVVSEYPSEVEHMFSPSCVSLLRCTGCCGDENLHCVPVETANVTMQLLKIRSGDRPSYVELTFSQHVRCECRPLREKMKPERCGDAVPRR
notes: mature; Purchased in mature form

Experiments:
[1] = molecular target: T1, recombinant human BMP-2 (human, UniProt P12643 283-396); assay: ELISA, rhBMP-2 coated 50 nM, binder 50 nM
T1 construct: also called rhBMP-2
T1 sequence (P12643 283-396 limits assumed): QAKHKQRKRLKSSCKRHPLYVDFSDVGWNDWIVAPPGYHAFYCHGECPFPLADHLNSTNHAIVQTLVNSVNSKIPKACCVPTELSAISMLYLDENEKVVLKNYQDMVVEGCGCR

[2] = molecular target: T2, platelet-derived growth factor (PDGF)-BB (human, UniProt P01127 82-190); assay: ELISA; growth factors coated at 100 nM, FabCol variants at 100 nM in solution, HRP-anti-human Fab [panel F]
T2 construct: mature; Purchased in mature form
T2 sequence (P01127 82-190): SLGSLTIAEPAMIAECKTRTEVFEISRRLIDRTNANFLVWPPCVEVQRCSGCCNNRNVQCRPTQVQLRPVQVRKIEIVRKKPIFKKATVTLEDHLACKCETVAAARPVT

[3] = molecular target: T3, placental growth factor (PlGF)-2 (human, UniProt P49763-3 19-170); assay: as above
T3 construct: mature; Purchased in mature form
T3 sequence (looked up): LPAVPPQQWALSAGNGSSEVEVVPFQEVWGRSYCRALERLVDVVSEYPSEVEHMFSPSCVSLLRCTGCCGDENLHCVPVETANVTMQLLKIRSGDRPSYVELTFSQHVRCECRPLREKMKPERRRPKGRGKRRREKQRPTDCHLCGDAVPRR

[4] = molecular target: T4, vascular endothelial growth factor (VEGF)-A165 (human, UniProt P15692-4 27-191); assay: as above
T4 construct: mature; Purchased in mature form, not glycosylated

[5] = molecular target: T5, bovine type I collagen (bovine, UniProt P02453 178-1191; P02465 89-1102); assay: ELISA, collagen I coated, 0.01-30 nM binder
T5 construct: PureCol, Advanced BioMatrix; coated on the plate; also called collagen I; PureCol
T5 sequence (P02453 178-1191, chain 1 of 2): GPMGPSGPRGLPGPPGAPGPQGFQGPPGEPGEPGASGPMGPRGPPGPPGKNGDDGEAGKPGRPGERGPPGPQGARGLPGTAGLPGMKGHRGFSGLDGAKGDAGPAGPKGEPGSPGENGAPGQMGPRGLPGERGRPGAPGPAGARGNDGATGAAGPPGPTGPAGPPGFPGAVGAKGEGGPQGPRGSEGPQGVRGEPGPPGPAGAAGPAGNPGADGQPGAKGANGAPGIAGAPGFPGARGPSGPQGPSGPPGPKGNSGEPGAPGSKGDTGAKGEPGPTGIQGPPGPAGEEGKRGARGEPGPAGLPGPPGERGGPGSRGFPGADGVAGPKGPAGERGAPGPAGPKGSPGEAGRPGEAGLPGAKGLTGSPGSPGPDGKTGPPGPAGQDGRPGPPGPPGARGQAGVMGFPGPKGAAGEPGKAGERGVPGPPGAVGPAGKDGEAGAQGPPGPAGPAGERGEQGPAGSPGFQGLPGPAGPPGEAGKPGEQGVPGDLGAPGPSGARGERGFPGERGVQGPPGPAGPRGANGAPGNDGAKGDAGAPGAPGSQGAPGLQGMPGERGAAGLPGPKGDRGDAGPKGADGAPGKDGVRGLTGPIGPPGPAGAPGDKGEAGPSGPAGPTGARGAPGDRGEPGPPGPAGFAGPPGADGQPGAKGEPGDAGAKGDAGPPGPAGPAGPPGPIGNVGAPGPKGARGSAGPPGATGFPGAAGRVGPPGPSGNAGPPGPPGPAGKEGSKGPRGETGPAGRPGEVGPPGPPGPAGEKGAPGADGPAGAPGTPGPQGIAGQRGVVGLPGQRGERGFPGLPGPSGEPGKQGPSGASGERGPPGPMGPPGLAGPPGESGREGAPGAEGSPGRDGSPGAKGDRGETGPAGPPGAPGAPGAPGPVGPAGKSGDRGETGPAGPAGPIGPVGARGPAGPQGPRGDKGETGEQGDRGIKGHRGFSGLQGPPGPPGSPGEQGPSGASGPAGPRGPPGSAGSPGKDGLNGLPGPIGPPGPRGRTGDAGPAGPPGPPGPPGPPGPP
T5 sequence (P02465 89-1102, chain 2 of 2): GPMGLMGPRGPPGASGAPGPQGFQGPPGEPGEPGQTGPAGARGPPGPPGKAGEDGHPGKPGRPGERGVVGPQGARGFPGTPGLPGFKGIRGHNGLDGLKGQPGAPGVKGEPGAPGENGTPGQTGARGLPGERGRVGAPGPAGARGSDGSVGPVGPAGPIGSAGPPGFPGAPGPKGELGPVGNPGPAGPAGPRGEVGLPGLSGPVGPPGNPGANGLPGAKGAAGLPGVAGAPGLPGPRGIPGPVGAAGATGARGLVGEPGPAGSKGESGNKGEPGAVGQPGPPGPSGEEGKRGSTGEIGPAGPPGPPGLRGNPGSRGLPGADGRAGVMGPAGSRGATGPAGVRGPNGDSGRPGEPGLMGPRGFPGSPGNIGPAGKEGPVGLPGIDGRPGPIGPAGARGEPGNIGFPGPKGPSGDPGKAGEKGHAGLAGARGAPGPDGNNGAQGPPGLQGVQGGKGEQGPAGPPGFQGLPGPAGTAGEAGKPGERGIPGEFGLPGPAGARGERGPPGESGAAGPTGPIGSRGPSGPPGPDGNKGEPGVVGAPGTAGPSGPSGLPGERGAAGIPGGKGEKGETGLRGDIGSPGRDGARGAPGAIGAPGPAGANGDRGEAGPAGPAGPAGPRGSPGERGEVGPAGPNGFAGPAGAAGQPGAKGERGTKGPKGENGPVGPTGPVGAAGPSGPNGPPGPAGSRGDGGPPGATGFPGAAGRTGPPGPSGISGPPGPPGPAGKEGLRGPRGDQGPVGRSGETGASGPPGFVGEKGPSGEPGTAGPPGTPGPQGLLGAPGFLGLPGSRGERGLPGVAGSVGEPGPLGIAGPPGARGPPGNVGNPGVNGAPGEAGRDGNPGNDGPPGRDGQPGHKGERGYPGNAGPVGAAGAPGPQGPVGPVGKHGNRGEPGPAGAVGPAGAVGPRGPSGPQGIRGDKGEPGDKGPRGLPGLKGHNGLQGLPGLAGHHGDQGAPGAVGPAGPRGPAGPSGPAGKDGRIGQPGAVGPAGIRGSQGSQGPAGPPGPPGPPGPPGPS
Method: ELISA plates (NUNC MaxiSorp, ThermoFisher Scientific) were coated overnight with 10 μg/mL of bovine type I collagen (PureCol, Advanced BioMatrix, San Diego CA, USA) at room temperature. The plate was further blocked using 2% bovine serum albumine (BSA) for 2 h at room temperature. […] The plate was washed thrice in PBST, and an horseradish peroxidase-conjugated anti-human Fab antibody (Jackson ImmunoResearch,) was used to detect bound FabCol variants. […] Absorbance at 450 nm was read using […], and corrected using the absorbance at 570 nm. Curve fits and dissociation constant KD were computed using Prism (GraphPad Software Inc., USA).

[6] = molecular target: B3; assay: ELISA; growth factors coated at 100 nM, FabCol variants at 100 nM in solution, HRP-anti-human Fab [panel F]
[7] = molecular target: T3, placental growth factor (PlGF)-2; assay: ELISA; peptide coated (10 µg/mL, legend paragraph 53), GF in solution, BSA-coated wells as control [panel D]
Method: (§1) (A) The location of laminin-derived peptides in the LG domain of laminin α3, α4, and α5 chains. (B-F) Affinity of heparin and GFs against chemically synthesized peptides derived from the LG domain of laminin α3, α4, and α5 chains. ELISA plates were coated with 10 μg/mL laminin peptide and further incubated with (B) biotinylated heparin, (C) VEGF-A165 and VEGF-A121, (D) PlGF-2 and PlGF-1, (E) PDGF-BB, or (F) FGF-2. Concentrations were 1 μg/mL for GFs and 10 μg/mL for heparin. Bound heparin was detected with streptavidin, and bound GFs with a specific antibody for each GF (n=4, mean±SEM). Statistical analyses were done using the Mann-Whitney U test by comparing the signals obtained from the laminin peptide- and the BSA-coated wells. *p<0.05, **p<0.01.
(§2) ELISA tests were performed as described above. […] 1 μg/mL of BSA served as non-binding protein control. After blocking with 2% BSA PBS-0.05% Tween 20 (PBS-T) solution, 1 μg/mL of the recombinant human proteins (VEGF-A121, VEGF-A165, PlGF-1, PlGF-2, PDGF-BB or FGF-2) or 10 μg/mL of biotinylated heparin (Sigma-Aldrich) were added. Bound GF was detected with biotinylated antibodies for human VEGF, PlGF, PDGF-BB, or FGF-2 (R&D Systems). The antibodies were detected by streptavidin-HRP (R&D Systems).

[8] = molecular target: T2, platelet-derived growth factor (PDGF)-BB; assay: ELISA; peptide coated (10 µg/mL, legend paragraph 53), GF in solution, BSA-coated wells as control [panel E]
Method: as §1, §2

[9] = molecular target: T6, vascular endothelial growth factor (VEGF)-A121 (human, UniProt P15692-9 27-147); assay: ELISA, peptide coated
T6 construct: mature; Purchased in mature form, not glycosylated
T6 sequence (looked up): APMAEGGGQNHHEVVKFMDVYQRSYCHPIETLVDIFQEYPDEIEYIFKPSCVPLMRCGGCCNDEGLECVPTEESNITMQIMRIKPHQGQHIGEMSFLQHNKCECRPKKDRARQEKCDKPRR
Method: as §1, §2

[10] = molecular target: B3; assay: ELISA, peptide coated
Method: as §1, §2

[11] = molecular target: T4, vascular endothelial growth factor …; assay: ELISA, peptide coated, GF 1 µg/mL
Method: as §1, §2

[12] = molecular target: T7, human plasma-derived vWF (human, UniProt P04275 764-2813); assay: ELISA, GF coated 50 nM, vWF 1 µg/mL
T7 construct: mature; also called plasma-derived purified vWF; von Willebrand factor
Method: ELISA tests were performed as previously reported1. In brief, ELISA plates (med-binding, Greiner Bio-One) were coated with 50 nM GFs at 37° C. for 2 hrs. […] Then, HRP conjugated goat anti-rabbit antibody (Jackson ImmunoResearch) was added. After 60 min of incubation, 50 μL TMB substrate (Sigma-Aldrich) was added. The reaction was stopped by adding 25 μL of 2N H2SO4. Subsequently, the absorbance at 450 nm was measured and subtracted the absorbance at 570 nm.

[13] = molecular target: T8, laminin-211 (human, UniProt P24043 23-3122; P07942 22-1786; P11047 34-1609); assay: ELISA, GF coated, laminin 10 nM
T8 construct: Full-length recombinant human laminin isoform (BioLamina); chains read from the isoform name
Method: (§3) ELISA tests were performed as previously reported. In brief, ELISA plates (med-binding, Greiner Bio-One) were coated with 50 nM GFs at 37° C. for more than 2 hrs. […] Bound laminin was detected with rabbit anti-human laminin γ1 chain antibody (1:1000 dilution, Assay biotech) or rabbit anti-human laminin α3 chain antibody (1:1000 dilution, Assay biotech). After incubation with biotinylated anti-rabbit antibody for 60 min at room temperature (RT), HRP conjugated streptavidin (Jackson ImmunoResearch) was added. After 60 min of incubation at RT, 50 μL TMB substrate (Sigma-Aldrich) was added. The reactions were stopped by adding 25 μL of 2 N H₂SO₄. Subsequently, the absorbance at 450 nm was measured with a reference of 570 nm.

[14] = molecular target: T9, laminin-411 (human, UniProt Q16363 25-1823; P07942 22-1786; P11047 34-1609); assay: ELISA, GF coated, laminin 10 nM
T9 construct: Full-length recombinant human laminin isoform (BioLamina); chains read from the isoform name
Method: as §3

[15] = molecular target: T10, laminin-511 (human, UniProt O15230 36-3695; P07942 22-1786; P11047 34-1609); assay: ELISA, GF coated, laminin 10 nM
T10 construct: Full-length recombinant human laminin isoform (BioLamina); chains read from the isoform name
Method: as §3

[16] = molecular target: T11, laminin-111 (human, UniProt P25391 18-3075; P07942 22-1786; P11047 34-1609); assay: ELISA, GF coated, laminin 10 nM
T11 construct: Full-length recombinant human laminin isoform (BioLamina); Chain composition is read from the isoform name
Method: as §3

[17] = molecular target: T12, laminin-332 (human, UniProt Q16787 28-1724; Q13751 18-1172; Q13753 22-1193, limits assumed); assay: ELISA, GF coated, laminin 10 nM
T12 construct: Full-length recombinant human laminin isoform (BioLamina); chains read from the isoform name
Method: as §3

[18] = molecular target: T13, laminin-521 (human, UniProt O15230 36-3695; P55268 33-1798; P11047 34-1609); assay: ELISA, GF coated, laminin 10 nM
T13 construct: Full-length recombinant human laminin isoform (BioLamina); chains read from the isoform name
Method: as §3

[19] = molecular target: T14, laminin-421 (human, UniProt Q16363 25-1823; P55268 33-1798; P11047 34-1609); assay: ELISA, GF coated, laminin 10 nM
T14 construct: Full-length recombinant human laminin isoform (BioLamina); chains read from the isoform name
Method: as §3

[20] = molecular target: T15, recombinant laminin α3 2928-3150 protein (linker domain and LG4 domain) (human, UniProt Q16787 2928-3150); assay: ELISA, LG domain protein coated
T15 construct: range 2928-3150; Made in HEK-293F cells; also called laminin alpha 3 LG domain recombinant protein
T15 sequence: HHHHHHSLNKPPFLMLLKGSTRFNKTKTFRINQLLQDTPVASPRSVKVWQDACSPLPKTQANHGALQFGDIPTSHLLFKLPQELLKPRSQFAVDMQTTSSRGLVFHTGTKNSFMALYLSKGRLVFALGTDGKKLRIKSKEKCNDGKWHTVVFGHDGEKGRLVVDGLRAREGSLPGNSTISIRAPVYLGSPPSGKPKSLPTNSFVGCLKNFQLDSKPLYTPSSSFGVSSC
Method: Affinity of GFs against recombinant laminin LG domains. ELISA plates were coated with 1 μg/mL (A) α3₂₉₂₈₋₃₁₅₀, (B) α4₈₂₆₋₁₈₁₆, or (C) α5₃₀₂₆₋₃₄₈₂ and further incubated with 1 μg/mL of VEGF-A165, VEGF-A121, PlGF-2, PlGF-1, PDGF-BB, or FGF-2 solution. Bound GFs were detected using a specific antibody for each GF (n=4, mean±SEM). Statistical analyses were done using the Mann-Whitney U test by comparing the signals obtained from the laminin domain- and the BSA-coated wells. *p<0.05, **p<0.01. […] A SPR chip was functionalized with the laminin α3₂₉₂₈₋₃₁₅₀ recombinant protein (˜1000 RU), and each GF was flowed over the chip at indicated concentrations. Curves represent the specific responses (in RU) to laminin. Experimental curves were fitted with Langmuir binding kinetics.
as §2

[21] = molecular target: T16, recombinant human vWF A1 domain (human, UniProt P04275 1261-1468, limits assumed); assay: ELISA; recombinant vWF A1 domain coated (10 µg/mL, legend paragraph 67), GF in solution, detected with anti-PlGF antibody [panel B]
T16 construct: domain: A1; also called vWF A1 recombinant protein; recombinant A1 domain
Method: FIGS. 18A-C. […] Bound GFs were detected using a specific antibody for each GF (n=4, mean±SD). Statistical analyses were done using ANOVA with Tukey's test or Student's t-test. *p<0.05, **p<0.01.
ELISA tests were performed as described above. […] After blocking with 2% BSA solution containing PBS-T, 1 μg/mL of the recombinant human proteins VEGF-A121, VEGF-A165, PlGF-1, PlGF-2, PDGF-BB, FGF-2, CXCL-12α and CXCL-12γ were added. 1 μg/mL of BSA served as non-binding protein control. Bound GF or chemokine was detected with biotinylated antibodies for human VEGF-A, PlGF, PDGF-BB, FGF-2, or CXCL-12 (R & D Systems). The antibodies were detected by streptavidin-HRP (R & D Systems). Color development and the absorbance measurement were done as described above.

B1: FabCol-LamLG4 recombinant fusion protein (Fab)
light: EIVLTQSPGTLSLSPGERATLSCRASQSVSSSYLAWYQQKPGQAPRLLIYGASSRATGIPDRFSGSGSGTDFTLTISRLEPEDFAVYYCQQAIGFPQTFGQGTKVEIKRTVAAPSVFIFPPSDEQLKSGTASVVCLLNNFYPREAKVQWKVDNALQSGNSQESVTEQDSKDSTYSLSSTLTLSKADYEKHKVYACEVTHQGLSSPVTKSFNRGEC
heavy: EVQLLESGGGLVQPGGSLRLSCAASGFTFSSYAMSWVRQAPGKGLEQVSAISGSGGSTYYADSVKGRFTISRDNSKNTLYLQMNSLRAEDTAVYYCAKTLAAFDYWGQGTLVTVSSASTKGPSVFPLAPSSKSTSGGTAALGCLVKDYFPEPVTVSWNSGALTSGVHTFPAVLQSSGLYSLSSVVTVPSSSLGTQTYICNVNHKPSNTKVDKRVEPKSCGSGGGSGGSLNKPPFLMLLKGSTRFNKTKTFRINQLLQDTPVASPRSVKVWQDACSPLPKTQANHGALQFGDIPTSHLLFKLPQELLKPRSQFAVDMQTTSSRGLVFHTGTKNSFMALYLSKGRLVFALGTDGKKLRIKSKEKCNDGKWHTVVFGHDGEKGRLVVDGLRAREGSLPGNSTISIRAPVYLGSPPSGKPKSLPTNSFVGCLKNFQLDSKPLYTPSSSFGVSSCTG
Question: Does B1 bind [1]?
Answer: Result: binds

Question: Does B1 bind [2]?
Answer: Result: binds

Question: Does B1 bind [3]?
Answer: Result: binds

Question: Does B1 bind [4]?
Answer: Result: binds

Question: And the Kd [5]?
Answer: Its Kd is roughly 2.3 nM.

Question: Does B1 bind [6]?
Answer: Result: no binding (tested: 100 nM (single concentration))

B2: laminin α3 3031-3043 peptide (LG4) (peptide)
peptide: KNSFMALYLSKGR
notes: Chemically synthesized (Genscript)
Question: Does B2 bind [7]?
Answer: Result: no binding (tested: 1 µg/mL PlGF-2 (single concentration))

Question: Does B2 bind [8]?
Answer: Result: no binding (tested: 1 µg/mL PDGF-BB (single concentration))

Question: Does B2 bind [9]?
Answer: Result: no binding (tested: 1 µg/mL)

Question: Does B2 bind [10]?
Answer: Result: no binding (tested: 1 µg/mL)

Question: Does B2 bind [11]?
Answer: Result: binds

Question: What does the source list for B3?
Answer: binding result [12]: no binding; binding result [13]: no binding (tested: A450 0.1); binding result [14]: no binding (tested: A450 0.1); binding result [15]: no binding (tested: A450 0.1); binding result [16]: no binding (tested: A450 0.1); binding result [17]: no binding (tested: A450 0.1); binding result [18]: no binding (tested: A450 0.1); binding result [19]: no binding (tested: A450 0.1); binding result [20]: no binding (tested: 1 µg/mL); binding result [21]: no binding (tested: 1 µg/mL PlGF-1 (single concentration))
